Results on three molecules are retold here after patent US20230001007A1, “Glycan-Interacting Compounds and Methods of Use” (Seagen Inc., priority 2017, published 2023).

The test system of one test is COLO205. In words: STn expression on CRC line by flow cytometry using anti-STn antibodies. It counts as cell-based. The conditions noted are these: detected using mSIA103. Here is the method: (§1) Mouse antibodies were characterized for in vitro and in vivo efficacy in breast, colon and ovarian cancer models. The antibodies were used to identify CRC cell lines that express STn on the surface. Five CRC lines were incubated in vitro and grown to confluency. % STn expression was determined by flow cytometry using anti-STn antibodies. Approximately 30-70% of cultured SW403, COL0205 and LS174T cells naturally expressed STn on the surface (as detected using mSIA103), while HT29 and RKO had very little to no detectable STn (as detected using hSIA101) on their cell surface (see Table 6).

A further test relates to LS174T. Described as above. Format: cell-based. The conditions noted are these: detected using mSIA103. The protocol: as §1
Another test concerns SW403. The test is described as above. Format: cell-based. The conditions noted are these: detected using mSIA103. Here is the method: as §1
For test [1], the system named is CRC Tissue Microarray (TMA) cores. Nature of the test: CRC Tissue Microarray staining for STn with and without neuraminidase. Format: binding. The text has this:
Further, a CRC Tissue Microarray (TMA) (NBP2-30214; Novus Bio, Littleton, Colo.) was stained for STn expression. The array consists of 59 cores with and without a neuraminidase (sialidase) enzyme treatment. Neuraminidase specifically cleaves terminal sialic acids and destroys STn antigen present on the tissue.

Another test concerns MDA-MB-231-STn cells. In words: Flow cytometry-based binding analysis. The conditions noted are these: 0 to 300 nM, read-out: MDA-MB-231-STn cell binding [EC50 (nM)]. The protocol: Humanized IgG1 antibodies, prepared as described above, were subjected to characterization analysis including flow cytometry-based binding analysis with MDA-MB-231-STn cells; binding analysis by BSM ELISA; and glycan array analysis.
In flow cytometry-based binding studies, antibodies were screened over a concentration range of 0 to 300 nM, comparing binding to MDA-MB-231 cells with or without transfection-induced STn expression. Binding was determined using an anti-human APC conjugated secondary antibody and only live cells were considered (based on propidium iodide negative gating). 5,000 events were collected per sample on average. Data were analyzed using FlowJo software (Asland, Oreg.) and resulting APC means and % APC were obtained. […] Human isotype IgG1 antibody was used as an isotype negative control. Epidermal growth factor receptor (LA22, EMD Millipore, Billerica, Mass.) was used as a positive control.

The test system of test [2] is bovine submaxillary mucin (BSM). Nature of the test: BSM ELISA, periodate-sensitive STn binding. The protocol: For BSM ELISA analysis, antibodies were screened over a concentration range of 0 to 100 nM on bovine submaxillary mucin (BSM) coated wells. A subset of wells were treated with mild periodate solution before antibody introduction to remove the side chain on terminal sialic acid residues (destroying the STn antigen). Optical densities of periodate and non-periodate-treated wells were determined and log transformed then fit to a nonlinear regression model to obtain a dose response curve. Optical density values obtained from periodate-treated wells were subtracted from non-periodate treated wells to obtain a periodate-sensitive STn binding curve and corresponding EC50 values.
In general terms: An ELISA detects its analyte on a solid surface through an enzyme-linked reagent.

The test system of test [3] is array glycans (AcSTn, GcSTn, Tn and others). In words: Glycan array analysis. Format: binding. Also noted: key: Group 1: capable of binding AcSTn and GcSTn, if they bind to glycans 5, 6, 23 and 24; Group 2: capable of binding STn as well as some related structures that include an O-linkage to serine or threonine, if they bind to glycans 5, 6, 23, 24, 27 and 31; Group 3: capable of binding STn, but may also bind a broader set of related structures) if they bind glycans 5, 6, 23, 24, 17, 3, 19, 37, 27 and 31; Group 4: capable of binding to both AcSTn and GcSTn as well as the un-sialylated Tn antigen (therefore having broader specificity) if they bind to glycans 5, 6, 23, 24 and 47. The protocol:
Optimized glycan arrays are utilized to test antibody affinity and specificity for multiple glycans in a single experiment. Glycan arrays include 71 chemically synthesized and well-defined glycans, most of which are Neu5Ac and Neu5Gc glycan pairs.
300 ml of epoxy blocking buffer is prepared by combining 15 ml of 2 M Tris buffer (pH 8) with 0.9 ml of 16.6 M ethanolamine and 284.1 ml of distilled water. The solution is brought to a final pH of 9.0 with HCl. The solution is filtered using a […] nitrocellulose membrane. The epoxy buffer solution as well as 1 L of distilled water are pre-warmed to 50° C. Glass slides are arranged in a slide holder and quickly submerged in a staining tub with the warmed epoxy blocking buffer. Slides are incubated in the epoxy blocking buffer for 1 hour at 50° C. with periodic shaking to deactivate epoxy binding sites. Next, slides are rinsed and blocked with PBS with 1% OVA at 25° C. for one hour. Serum samples with polyclonal antibodies (1:1000) or purified monoclonal antibodies (1 ug/mL), are diluted in PBS with 1% OVA and added to the glycan array for one hour at 25° C. After extensive washing, binding of antibodies are detected by incubating glycan microarray slides with Cy3-conjugated anti-mouse IgG (Jackson Immunoresearch, West Grove, Pa.) for one hour. Slides are then washed extensively, dried and scanned with a Genepix 4000B scanner (Laser at 100%; gain at 350; 10 μm pixels). Raw data from scanned images are extracted using the Genepix software and analysis of raw data is carried out.
Based on array analysis, antibodies are classified according to array glycan binding profile. Antibodies are classified as “Group 1” antibodies, capable of binding AcSTn and GcSTn, if they bind to glycans 5, 6, 23 and 24. Such antibodies are referred to as Pan-STn antibodies due to their ability to associate with a wider range of STn structures and the portion of STn indicated by the largest ellipse in FIG. 1A. […]

For test [4], the system named is MDA-MB-231 cells transfected for enhanced expression of STn (STn positive cells). In words: ADC cytotoxicity assay ([…]-GLO). It counts as cell-based. The conditions noted are these: MMAE-conjugated ADC versions; 72 hours; kill of STn positive cells. Here is the method: MMAE-conjugated ADC versions of hSIA101, hSIA102, and hSIA103 were assessed in an ADC cytotoxicity assay using MDA-MB-231 cells (parental or transfected for enhanced expression of STn). Parental cells were grown in Eagle's Minimum Essential Medium (EMEM) supplemented with 10% FBS, lx Pen/Strep and 45 μg/mL gentamycin. STn positive cells were grown in the same media except with the addition of 1 mg/mL G418 for antibiotic selection. Cells were seeded separately (4,000 cells/well for parental cells or 2,000/well for STn positive cells) in 96-well plates using proper media described above. Cells were grown overnight. After 16-20 hours, cells were treated with varying concentrations of test antibodies in triplicate (50 nM to 0.012 nM) for 72 hours. Then, cells were analyzed using an ADC […]-GLO® luminescent cell viability assay kit (Promega, Madison, Wis.) to determine the amount of ATP present, an indicator of metabolically active cells. The assay uses a single reagent that is added directly to the cultured cells in serum-supplemented medium. The reagent lyses the cells and generates a luminescent signal proportional to the amount of ATP present. Luminescent signals were analyzed and used to calculate the half-maximal inhibitory concentration (IC50) values for each antibody used based on the concentration required to kill STn positive cells at half-maximal levels (see Table 9).

B1: mSIA103: mouse IgG2a anti-STn antibody, VH SEQ ID NO: 5, VL SEQ ID NO: 6; variable domains from 3F1 IgG1 antibodies (antibody, V domains shown)
VH: QVQLQQSDAELVKPGASVKISCKASGYTFTDHAIHWVKQKPEQGLDWIGYISPGNGDIKYNEKFKDKVTLTADKSSSTACMHLNSLTSEDSAVYFCKRSLLALDYWGQGTTLTVSS
VL: DIVMTQSHKFMSTSVGDRVSITCKASQDVGTNIAWYQQKPGRSPKVLIYSASTRHTGVPDRFTGSGSGTDFTLTISNVQSEDLTDYFCQQYSSFPLTFGVGTKLELK
modifications: mouse IgG2a constant regions
notes: variable domains from 3F1 IgG1 antibodies
On to B1, for which the “% STn expression” value with COLO205 is on record as 67.7%; in the test with LS174T, 69.9%; in the test with SW403, 30.0%. Also, in test [1] (8 cores), the “staining on normal colon” value is “restricted to crypt and surface mucosa”. For the same molecule, the “staining after neuraminidase treatment” value in test [1] (250 mU/mL neuraminidase, all 45 positive cores) is listed as “abolished”. In addition, the “neoplastic cores with some level of positive membrane staining” value in test [1] (out of the 51 neoplastic cores on the TMA) came to 45.

B2: hSIA102 (antibody, V domains shown)
VH: QVQLVQSGAEVKKPGASVKISCKASGYTFTDHAIHWVRQAPGQGLEWIGYFSPGNDDIKYNEKFKVRATLTADKSSSTAYMELRSLRSDDTAVYFCKRSYYGDWGQGTLVTVSS
VL: DIQMTQSPSSLSASVGDRVTITCRASENIYSHLAWYQQKPGKAPKLLVYGATNLASGVPSRFSGSGSGTQFTLTISSLQPEDFATYYCQHFWGAPFTFGQGTKVEIK
For the molecule B2, the EC50 in the test with MDA-MB-231-STn cells was found to be 0.1 nM. The “periodate sensitivity of binding in ELISA assays” value in test [2] is given as “not periodate sensitive”. In test [3], the “Array glycan binding profile” value is listed as “Group 4”. The IC50 in test [4] is 2.6 nM.

B3: hSIA103 (antibody, V domains shown)
VH: QVQLVQSGAEVKKPGASVKVSCKASGYTFTDHAIHWVRQAPGQGLEWMGYISPGNGDIKYNEKFKDRVTMTADKSSSTAYMQLRSLRSDDTAVYFCKRSLLALDYWGQGTLVTVSS
VL: DIQMTQSPSSLSASVGDRVTITCKASQDVGTNIAWYQQKPGKAPKVLIYSASTRHTGVPSRFSGSGSGTDFTLTISSLQPEDFATYFCQQYSSFPLTFGQGTKVEIK
In the case of B3, the EC50 in the test with MDA-MB-231-STn cells stood at 0.3 nM; in test [2] (periodate-sensitive STn binding curve, 0 to 100 nM), 1.8 nM. Also, the “Array glycan binding profile” value in test [3] is “Group 1”. Also, the IC50 in test [4] amounted to 1.3 nM.

As usually defined, the EC50 is the concentration at which the effect is half-maximal. Broadly, the IC50 is the concentration at which inhibition is half-maximal.
